From patent US20260183411A1, “TARGETING SORTILIN” (priority 2024, published 2026)

Tests used:
[1] = CMC formulation buffer screen; type: physicochemical; conditions: 0.5 mg/mL
Description: Exemplary conjugate agents (e.g., sortilin binding agents), referred to in the present Example as “peptide drug conjugates” or “PDCs” were assessed in a formulation screen to determine an appropriate vehicle for in vivo studies and to assess precipitation risk. PDC solutions were made up to 0.5 mg/mL in the following buffers: 25 mM Histidine 10% sucrose pH 7, 50 mM acetate/acetic acid, 10% sucrose pH 5, 1×PBS pH 7.4, Saline, 50 mM HEPES 10% sucrose pH 7. Solubility was assessed using a shake flask method and the test compound concentration of the filtrate was confirmed using HPLC-UV.
The following buffers were screened: 25 mM Histidine 10% sucrose pH 7, 50 mM acetate/acetic acid, 10% sucrose pH 5, 1×PBS pH 7.4, Saline, 50 mM HEPES 10% sucrose pH 7. The PDCs were soluble in all buffers tested (Table 1), and we proceed to use 25 mM Histidine, 10% sucrose pH 7 as our buffer of choice for our in vivo studies.

[2] = Maximum tolerated dose (MTD) study; type: in vivo, mouse
Description: BALB/c Nude mice, female, 6-8 weeks, weighing approximately 18-22 g were purchased from the Shanghai SLAC Laboratory Animal Co., LTD. MTD studies were conducted at WuXi AppTec and the care and use of animals was conducted in accordance with the regulations of the Association for Assessment and Accreditation of Laboratory Animal Care (AAALAC). Two MTD studies were performed (a) a low dose study with doses ranging from 0.1, 0.5, 1 and 3 mg/kg and (b) a high dose study with doses ranging from 3, 5, 10 mg/kg. Dosing volume was determined based on body weight (10 ul/g) and PDCs were dissolved in 25 mM Histidine 10% sucrose pH 7 and administered i.v. at a single dose at day 0. The treatment and observation were conducted up to 7 days and MTD was defined by ≥20% body weight loss. Body weights were measured daily, death and observed clinical signs were recorded.
Doses of 3, 5, and 10 mg/kg were administered. MTD was defined by ≥20% body weight loss and body weight measured daily.

MDA-MB-231 xenograft = experiment: MDA-MB-231 murine xenograft efficacy model; type: in vivo, mouse
Outline: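 Female BALB/c nude mice bearing subcutaneous MDA-MB-231 tumours (10×10^6 cells in PBS/Matrigel), treated from ~150-200 mm^3 mean volume. Free MMAE given i.v. QW×4 at 0.6 or 0.06 mg/kg in 25 mM histidine/10% sucrose pH 7. Caliper volumes twice weekly; TGI (%) calculated against vehicle group.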

[3] = Murine hematotoxicity assay; type: in vivo, mouse; conditions: 3 mg/kg i.v. QW×4, BALB/c mice
Description: (§1) Murine hematotoxicity experiments were conducted at Charles River Laboratories and the care and use of animals was conducted in accordance with the regulations of the Association for Assessment and Accreditation of Laboratory Animal Care (AAALAC). Wild type BALB/c, female, 7-8 weeks, weighing approximately 18-22 g were randomized and dosed intravenously with control or test articles at a QW×4 schedule. Dosing volume was adjusted based on body weight and was administered at 10 mL/Kg. PDCs were dissolved in 25 mM Histidine 10% sucrose pH 7 and 3 mg/kg was administered. Free MMAE payload was also tested, and similarly dissolved in 25 mM Histidine 10% sucrose pH 7 and administered to the mice at a dose of […] by i.v. injection at a QW×4 schedule. 3 days following each dose, 150 μL of whole blood was collected via submandibular method and placed in K2 EDTA tubes stored on ice. Blood neutrophil counts were performed on the day of collection by IDEXX labs. Body weights were recorded twice a week until study endpoint.
as §1, with “As outlined in the material” for “Murine hematotoxicity experiments were conducted at Charles River Laboratories”, “methods” for “the care and use”, “Example 1, wild” for “animals was conducted in accordance with the regulations of the Association for Assessment and Accreditation of Laboratory Animal Care (AAALAC). Wild”, “PDCs were dissolved in 25 mM Histidine 10% sucrose pH 7 and 3 mg/kg was administered.” left out

## CC[C@H](C)[C@@H]([C@@H](CC(=O)N1CCC[C@H]1[C@H](OC)[C@@H](C)C(=O)N[C@H](C)[C@@H](O)c1ccccc1)OC)N(C)C(=O)[C@@H](NC(=O)[C@H](C(C)C)N(C)C(=O)OCc1ccc(NC(=O)[C@H](CCCNC(N)=O)NC(=O)[C@@H](NC(=O)CCCC(=O)NCCC(=O)N(C)CC(=O)N(C)CC(=O)N(C)CC(=O)N(C)CC(=O)N[C@@H](C)C(=O)N2CCC[C@H]2C(=O)N[C@@H](CCCNC(=N)N)C(=O)N[C@@H](Cc2c[nH]c3ccccc23)C(=O)N[C@@H](CC(=O)O)C(=O)N[C@@H](C)C(=O)N2CCC[C@H]2C(=O)N[C@@H](CC(C)C)C(=O)N[C@@H](CCCNC(=N)N)C(=O)N[C@@H](CC(=O)O)C(=O)N2CCC[C@H]2C(=O)N[C@@H](C)C(=O)N[C@@H](CC(C)C)C(=O)N[C@@H](CCCNC(=N)N)C(=O)N[C@@H](CCC(N)=O)C(=O)N[C@@H](CC(C)C)C(=O)N[C@@H](CC(C)C)C(=O)O)C(C)C)cc1)C(C)C [PRGN_WT_PDC]
[1]; 25 mM Histidine 10% sucrose pH 7
  result (buffer screening): clear solution
[1]; 50 mM HEPES 10% sucrose pH 7
  result (buffer screening): clear solution
[1]; 50 mM acetate/acetic acid, 10% sucrose pH 5
  result (buffer screening): clear solution
[1]; 1x PBS pH 7.4
  result (buffer screening): clear solution
[1]; Saline
  result (buffer screening): clear solution
[2]; 5 mg/kg i.v. single dose, after 48 hrs, recovered at Day 7
  sustained body weight loss: ~15%
[2]; 10 mg/kg i.v. single dose
  toxicity: significant toxicity
[2]; 10 mg/kg i.v. single dose, after 48 hrs, BALB/c nude mice
  body weight loss: greater than 20%
MDA-MB-231 xenograft; 3, 1, 0.3 mg/kg i.v. QW×4
  tumor growth inhibition, dose dependence: dose-dependent tumor growth inhibition
MDA-MB-231 xenograft; PDC at each dose, free MMAE at equivalency to 3 mg/kg PDC
  body weight variation (Example 6): mirrored that observed with vehicle treatment
MDA-MB-231 xenograft; PDCs 3 mg/kg, free MMAE at molar equivalency (0.6 mg/kg)
  body weight loss (Example 8): body weight loss tracked each other
[3]
  blood neutrophil counts compared to vehicle or MMAE treatment: reduced neutrophil counts
